The target in the assay is 新冠原始假病毒的S蛋白 (FNV-SARS-CoV-2-S) (SARS-CoV-2, UniProt P0DTC2 14-1273). The assay is described as follows: cell-based or functional assay.

B1: 抗SARS-CoV-2(COVID-19)S蛋白RBD单克隆抗体B15-5-B3 (antibody, V domains shown)
VH: EVKFEESGGGLVQPGGSMKLSCAASGFTFSDAWMDWVRQSPEKGLEWVAEIRNKANNHATYYAESVKGRFTISRDDSKSSVYLQMNSLRAEDTGIYYCTPYDYAYPWFWGQGTLVTVSA
VL: EIVLTQSPTTMAASPGEKITITCSASSSISSHYLHWYQQKPGFSPKLLIYRSYSLASGFPGRFSGSGSGTSFSLSIGTMEAEDVATYYCQQGSSRITPFGGGTKLEIK
In the case of B1, the “假病毒中和效应 EC50 (luciferase, HEK293-ACE2 cells)” value was 36.9 ng/mL.

For the origin of these results see patent publication CN113999301A (JIANGSU XINTRUM PHARMACEUTICALS CO LTD, dated 2022).
